Results reported in patent EP4782541A1 (Nanjing Probio Biotech Co., Ltd., dated 2026).

Target: T1, human CD3 (on Jurkat cells) (human, UniProt P07766 23-207; P09693 23-182; P04234 22-171)
T1 construct: whole, on cells
Experiment: flow cytometry on Jurkat cells expressing human CD3

T1 sequence (P07766 23-207, chain 1 of 3): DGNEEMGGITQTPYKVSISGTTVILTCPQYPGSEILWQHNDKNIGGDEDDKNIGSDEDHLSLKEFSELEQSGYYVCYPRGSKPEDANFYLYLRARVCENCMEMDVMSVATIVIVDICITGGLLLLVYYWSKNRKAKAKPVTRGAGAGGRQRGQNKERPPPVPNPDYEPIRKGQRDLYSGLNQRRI
T1 sequence (P09693 23-182, chain 2 of 3): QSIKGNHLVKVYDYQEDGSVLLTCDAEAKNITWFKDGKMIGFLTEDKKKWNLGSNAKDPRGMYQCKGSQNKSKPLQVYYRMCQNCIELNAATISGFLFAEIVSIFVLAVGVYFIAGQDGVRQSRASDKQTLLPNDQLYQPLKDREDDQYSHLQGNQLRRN
T1 sequence (P04234 22-171, chain 3 of 3): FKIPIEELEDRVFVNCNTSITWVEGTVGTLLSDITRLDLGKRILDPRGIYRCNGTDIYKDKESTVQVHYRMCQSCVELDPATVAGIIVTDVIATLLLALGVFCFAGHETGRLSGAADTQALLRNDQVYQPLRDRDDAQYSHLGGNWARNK

Binder | EC50 [nM]
BsAb-16 (bispecific antibody, human IgG1, lambda) EVQLVESGGGLVQPGGSLRLSCAASGRSFSSFQMGWFRQAPGKEREFVAASGWSGGPTYYWDSVIGRFTISTDNSKNTLYLQMNSLRAEDTAVYYCYEDRVLSGRHVRYWGQGTLVTVSSGGGGSGGGGSGGGGSEVQLVESGGGLVQPGGSLRLSCAASGRSFSSFQMGWFRQAPGKEREFVAASGWSGGPTYYWDSVIGRFTISTDNSKNTLYLQMNSLRAEDTAVYYCYEDRVLSGRHVRYWGQGTLVTVSSDKTHTCPPCPAPESTRGPSVFLFPPKPKDTLMISRTPEVTCVVVDVSHEDPEVKFNWYVDGVEVHNAKTKPREEQYNSTYRVVSVLTVLHQDWLNGKEYKCKVSNKALPAPIEKTISKAKGQPREPQVCTLPPSRDELTKNQVSLSCAVKGFYPSDIAVEWESNGQPENNYKTTPPVLDSDGSFFLVSKLTVDKSRWQQGNVFSCSVMHEALHNHYTQKSLSLSPGK heavy: EVQLVESGGGLVQPGRSLRLSCAASGFTFNTYAMNWVRQAPGKGLEWVARIRSKYNNYATYYADSVKDRFTISRDDSKSIAYLQMNSLKTEDTAVYYCVRHGNFGNSYVSWFAYWGQGTLVTVSSASTKGPSVFPLAPSSKSTSGGTAALGCLVKDYFPEPVTVSWNSGALTSGVHTFPAVLQSSGLYSLSSVVTVPSSSLGTQTYICNVNHKPSNTKVDKKVEPKSCDKTHTCPPCPAPESTRGPSVFLFPPKPKDTLMISRTPEVTCVVVDVSHEDPEVKFNWYVDGVEVHNAKTKPREEQYNSTYRVVSVLTVLHQDWLNGKEYKCKVSNKALPAPIEKTISKAKGQPREPQVYTLPPCRDELTKNQVSLWCLVKGFYPSDIAVEWESNGQPENNYKTTPPVLDSDGSFFLYSKLTVDKSRWQQGNVFSCSVMHEALHNHYTQKSLSLSPGK light: QTVVTQEPSLTVSPGGTVTLTCRSSTGAVTTSNYANWVQQKPGQAPRGLIGGTNKRAPGVPARFSGSLLGGKAALTLSGVQPEDEAEYFCALWYSNLWVFGGGTKLTVLGQPKAAPSVTLFPPSSEELQANKATLVCLISDFYPGAVTVAWKADSSPVKAGVETTTPSKQSNNKYAASSYLSLTPEQWKSHRSYSCQVTHEGSTVEKTVAPTECS | 0.469
BsAb-7 (bispecific antibody, human IgG1, lambda, also called BsAb-07) QVQLVESGGGVVQPGGSLRLSCAASGFVLRVNTVSWYRQAPGKQRELVALITSESNEYYDDSVKGRFTISRDNAKNTIYLHMNSLKPEDTGVYFCNFITTWGQGTQVTVSSGGGGSGGGGSGGGGSQVQLVESGGGVVQPGGSLRLSCAASGFVLRVNTVSWYRQAPGKQRELVALITSESNEYYDDSVKGRFTISRDNAKNTIYLHMNSLKPEDTGVYFCNFITTWGQGTQVTVSSDKTHTCPPCPAPESTRGPSVFLFPPKPKDTLMISRTPEVTCVVVDVSHEDPEVKFNWYVDGVEVHNAKTKPREEQYNSTYRVVSVLTVLHQDWLNGKEYKCKVSNKALPAPIEKTISKAKGQPREPQVCTLPPSRDELTKNQVSLSCAVKGFYPSDIAVEWESNGQPENNYKTTPPVLDSDGSFFLVSKLTVDKSRWQQGNVFSCSVMHEALHNHYTQKSLSLSPGK heavy: EVQLVESGGGLVQPGRSLRLSCAASGFTFNTYAMNWVRQAPGKGLEWVARIRSKYNNYATYYADSVKDRFTISRDDSKSIAYLQMNSLKTEDTAVYYCVRHGNFGNSYVSWFAYWGQGTLVTVSSASTKGPSVFPLAPSSKSTSGGTAALGCLVKDYFPEPVTVSWNSGALTSGVHTFPAVLQSSGLYSLSSVVTVPSSSLGTQTYICNVNHKPSNTKVDKKVEPKSCDKTHTCPPCPAPESTRGPSVFLFPPKPKDTLMISRTPEVTCVVVDVSHEDPEVKFNWYVDGVEVHNAKTKPREEQYNSTYRVVSVLTVLHQDWLNGKEYKCKVSNKALPAPIEKTISKAKGQPREPQVYTLPPCRDELTKNQVSLWCLVKGFYPSDIAVEWESNGQPENNYKTTPPVLDSDGSFFLYSKLTVDKSRWQQGNVFSCSVMHEALHNHYTQKSLSLSPGK light: QTVVTQEPSLTVSPGGTVTLTCRSSTGAVTTSNYANWVQQKPGQAPRGLIGGTNKRAPGVPARFSGSLLGGKAALTLSGVQPEDEAEYFCALWYSNLWVFGGGTKLTVLGQPKAAPSVTLFPPSSEELQANKATLVCLISDFYPGAVTVAWKADSSPVKAGVETTTPSKQSNNKYAASSYLSLTPEQWKSHRSYSCQVTHEGSTVEKTVAPTECS | 0.526
BsAb-11 (bispecific antibody, human IgG1, lambda) QVQLVESGGGVVQPGGSLRLSCAASGFVLRVNTVSWYRQAPGKQRELVALITSESNEYYDDSVKGRFTISRDNAKNTIYLHMNSLKPEDTGVYFCNFITTWGQGTQVTVSSDKTHTCPPCPAPESTRGPSVFLFPPKPKDTLMISRTPEVTCVVVDVSHEDPEVKFNWYVDGVEVHNAKTKPREEQYNSTYRVVSVLTVLHQDWLNGKEYKCKVSNKALPAPIEKTISKAKGQPREPQVCTLPPSRDELTKNQVSLSCAVKGFYPSDIAVEWESNGQPENNYKTTPPVLDSDGSFFLVSKLTVDKSRWQQGNVFSCSVMHEALHNHYTQKSLSLSPGK heavy: QVQLVESGGGVVQPGGSLRLSCAASGFVLRVNTVSWYRQAPGKQRELVALITSESNEYYDDSVKGRFTISRDNAKNTIYLHMNSLKPEDTGVYFCNFITTWGQGTQVTVSSGGGGSGGGGSGGGGSEVQLVESGGGLVQPGRSLRLSCAASGFTFNTYAMNWVRQAPGKGLEWVARIRSKYNNYATYYADSVKDRFTISRDDSKSIAYLQMNSLKTEDTAVYYCVRHGNFGNSYVSWFAYWGQGTLVTVSSASTKGPSVFPLAPSSKSTSGGTAALGCLVKDYFPEPVTVSWNSGALTSGVHTFPAVLQSSGLYSLSSVVTVPSSSLGTQTYICNVNHKPSNTKVDKKVEPKSCDKTHTCPPCPAPESTRGPSVFLFPPKPKDTLMISRTPEVTCVVVDVSHEDPEVKFNWYVDGVEVHNAKTKPREEQYNSTYRVVSVLTVLHQDWLNGKEYKCKVSNKALPAPIEKTISKAKGQPREPQVYTLPPCRDELTKNQVSLWCLVKGFYPSDIAVEWESNGQPENNYKTTPPVLDSDGSFFLYSKLTVDKSRWQQGNVFSCSVMHEALHNHYTQKSLSLSPGK light: QTVVTQEPSLTVSPGGTVTLTCRSSTGAVTTSNYANWVQQKPGQAPRGLIGGTNKRAPGVPARFSGSLLGGKAALTLSGVQPEDEAEYFCALWYSNLWVFGGGTKLTVLGQPKAAPSVTLFPPSSEELQANKATLVCLISDFYPGAVTVAWKADSSPVKAGVETTTPSKQSNNKYAASSYLSLTPEQWKSHRSYSCQVTHEGSTVEKTVAPTECS | 4
BsAb-6 (bispecific antibody, human IgG1, lambda, also called BsAb-06) EVQLVESGGGLVQPGGSLRLSCAASYFISRFYAVGWYRQAPGKQRELVARISSGGWTYYADSVKGRFTISIDNSKNTLYLQMNSLRAEDTAVYYCNARNLWGQGTLVTVSSGGGGSGGGGSGGGGSEVQLVESGGGLVQPGGSLRLSCAASYFISRFYAVGWYRQAPGKQRELVARISSGGWTYYADSVKGRFTISIDNSKNTLYLQMNSLRAEDTAVYYCNARNLWGQGTLVTVSSDKTHTCPPCPAPESTRGPSVFLFPPKPKDTLMISRTPEVTCVVVDVSHEDPEVKFNWYVDGVEVHNAKTKPREEQYNSTYRVVSVLTVLHQDWLNGKEYKCKVSNKALPAPIEKTISKAKGQPREPQVCTLPPSRDELTKNQVSLSCAVKGFYPSDIAVEWESNGQPENNYKTTPPVLDSDGSFFLVSKLTVDKSRWQQGNVFSCSVMHEALHNHYTQKSLSLSPGK heavy: EVQLVESGGGLVQPGRSLRLSCAASGFTFNTYAMNWVRQAPGKGLEWVARIRSKYNNYATYYADSVKDRFTISRDDSKSIAYLQMNSLKTEDTAVYYCVRHGNFGNSYVSWFAYWGQGTLVTVSSASTKGPSVFPLAPSSKSTSGGTAALGCLVKDYFPEPVTVSWNSGALTSGVHTFPAVLQSSGLYSLSSVVTVPSSSLGTQTYICNVNHKPSNTKVDKKVEPKSCDKTHTCPPCPAPESTRGPSVFLFPPKPKDTLMISRTPEVTCVVVDVSHEDPEVKFNWYVDGVEVHNAKTKPREEQYNSTYRVVSVLTVLHQDWLNGKEYKCKVSNKALPAPIEKTISKAKGQPREPQVYTLPPCRDELTKNQVSLWCLVKGFYPSDIAVEWESNGQPENNYKTTPPVLDSDGSFFLYSKLTVDKSRWQQGNVFSCSVMHEALHNHYTQKSLSLSPGK light: QTVVTQEPSLTVSPGGTVTLTCRSSTGAVTTSNYANWVQQKPGQAPRGLIGGTNKRAPGVPARFSGSLLGGKAALTLSGVQPEDEAEYFCALWYSNLWVFGGGTKLTVLGQPKAAPSVTLFPPSSEELQANKATLVCLISDFYPGAVTVAWKADSSPVKAGVETTTPSKQSNNKYAASSYLSLTPEQWKSHRSYSCQVTHEGSTVEKTVAPTECS | 1.18
